{
  "source": "patent US20120122716A1",
  "about": "“CELL LINE DERIVED FROM THE EPITHELIAL LINING OF THE HUMAN ENDOLYMPHATIC SAC IN THE INNER EAR” (priority 2010, published 2012)",
  "origin": "cited, not measured here",
  "molecules": {"B1": {"name": "IL-1α: interleukin 1 alpha, cytokine (protein, UniProt P01583 113-271, looked up)", "Interleukin-1 alpha": "SAPFSFLSNVKYNFMRIIKYEFILNDALNQSIIRANDQYLTAAALHNLDEAVKFDMGAYKSSKDDAKITVILRISKTQLYVTAQDEDQPVLLKEMPEIPKTITGSETNLLFFWETHGTKNYFTSVAHPNLFIATKQDYWVCLAGGPPSITDFQILENQA"}},
  "tested_on": "beta defensin 2",
  "conditions": "HMEEC-1 cells; via Src-dependent Raf-MEK1/2-ERK signaling pathway",
  "data": [
    {"molecule": "B1", "values": [
      {"measurement": "beta defensin 2 expression", "result": "up-regulate"}
    ]}
  ]
}
